We go through one protein from article PMC11191739, “Structural Flexibility and Disassembly Kinetics of Single Ferritin Molecules Using Optical Nanotweezers” (ACS Nano, 2024).

As usually defined, the stoichiometry N is a count of units in the complex or per binding partner.

The data set deals with the molecule itself. Briefly: mass photometry; 50 nM ferritin at pH 2, measured at 1, 3 and 60 min, TwoMP mass photometer.

B1: holo-ferritin (derived from equine spleen, F4503) (natural protein)
chain 1: MSSQIRQNYSTEVEAAVNRLVNLYLRASYTYLSLGFYFDRDDVALEGVCHFFRELAEEKREGAERLLKMQNQRGGRALFQDLQKPSQDEWGTTLDAMKAAIVLEKSLNQALLDLHALGSAQADPHLCDFLESHFLDEEVKLIKKMGDHLTNIQRLVGSQAGLGEYLFERLTLKHD
chain 2: MTTAFPSQVRQNYHQDSEAAINRQINLELHASYVYLSMSFYFDRDDVALKNFAKYFLHQSHEEREHAEKLMKLQNQRGGRIFLQDIKKPDQDDWENGLKAMECALHLEKNVNESLLELHKLATDKNDPHLCDFLETHYLNEQVKAIKELGDHVTNLRRMGAPESGMAEYLFDKHTLGECDES
notes: ferritin light (L) chain, equine spleen; ferritin heavy (H) chain, equine spleen; It carries a ferrihydrite iron core; Rows of m1 with itself describe the self-association of the subunits; also called equine spleen ferritin; source: bought: Sigma-Aldrich (F4503), derived from equine spleen
Regarding B1, the “stoichiometry N” value is 18.
